Data published in patent publication US20070212355A1 (priority 2005, published 2007).

What was measured:
CD-1 mice [1] = test: Gastrointestinal transit in post-operative inflammatory ileus model; type: in vivo; conditions: 2 mg/kg one hour before surgery; transit 48 hr after operation, 45 minutes; FIG. 5
Experimental: On the day of study, upper gastrointestinal transit was measured using the FITC-dextran method. This method provides both, a measure of gastrointestinal transit and a readout of the pattern of distribution of the test meal along the gastrointestinal tract. Mice were fed a test meal of […] of FITC-dextran solution (5 mg/ml of 70,000 molecular weight dextran conjugated to fluorescein-isothiocyanate in 0.5% methylcellulose/deionized water) administered intragastrically by an 18 gauge curved feeding tube. Following oral administration of the FITC-dextran test meal, mice were returned to their home cages. It was shown that a 30 min test period was the optimum duration for detecting accelerated transit, while a 45 min test period was optimum for detecting delayed transit. Following the appropriate test period, mice were sacrificed by carbon dioxide exposure. The entire gastrointestinal tract from the lower esophageal sphincter to the terminal colon was removed. […] Aliquots of the cleared supernatant were read in duplicate on a 96-well fluorescence plate reader to quantify the magnitude of the fluorescent signal in each segment of bowel. […] The GC is calculated in the lower panel for statistical comparison. […]
All mice received an oral test meal of FITC-dextran 48 hr after the operation. Gastrointestinal transit was determined 45 minutes after oral feeding. […]

CD-1 mice [2] = test: Myeloperoxidase histochemistry of intestinal muscularis, post-operative inflammatory ileus; type: in vivo; conditions: 2 mg/kg one hour before surgery; tissue 48 hr after operation; FIG. 6, 7
Experimental: Myeloperoxidase histochemistry was performed on tissues harvested from the mid-small bowel of the mice 48 hr after the operation.
Briefly, segments of mid-small bowel were collected from the centrifuge tubes described in Example 12. Whole mounts of the muscle layer were prepared by pinning the tissue flat in a Sylgard® lined Petri dish and stretching the tissue to 2 times its length and 1.5 times its width. The mucosa was removed by fine dissection. The muscularis whole mounts were then fixed with 100% ethanol for 1 hr, washed 3 times with PBS, and incubated for 20 min in PBS containing 0.1% hydrogen peroxide and 1 mg/ml Hanker-Yates reagent. Following a second wash with PBS, the whole mounts were mounted on glass slides, cover-slipped, and viewed on an optical microscope. Myeloperoxidase containing leukocytes were counted in 6 to 8 adjacent 200× optical fields of view and the mean cell counts were calculated and recorded.

B1: SEQ ID NO: 80: human A2G-GLP2 peptide in murine IgG2a scaffold (protein)
chain: HGDGSFSDEMNTILDNLAARDFINWLIQTKITDGSGGGSGTTVTVSAEPRGPTIKPCPPCKCPAPNAAGGPSVFIFPPKIKDVLMISLSPIVTCVVVDVSEDDPDVQISWFVNNVEVHTAQTQTHREDYNSTLRVVSALPIQHQDWMSGKEFKCKVNNKDLPAPIERTISKPKGSVRAPQVYVLPPPEEEMTKKQVTLTCMVTDFMPEDIYVEWTNNGKTELNYKNTEPVLDSDGSYFMYSKLRVEKKNWVERNSYSCSVVHEGLHNHHTTKSFSRTPGK
modifications: Human A2G-GLP2 peptide in murine IgG2a scaffold
In the case of B1, the “effect on surgically induced delay in gastrointestinal transit” value (CD-1 mice [1]) is reported as “significant improvement in transit” and the “number of MPO-positive leukocytes infiltrating small intestinal muscle layer” value (CD-1 mice [2]) is reported as “significantly reduced the number of infiltrating cells”.
